In publication doi:10.1101/169961:

Molecular target: Chicken skeletal muscle actin (chicken) (UniProt P68139)
Assay: TIRF microscopy

percent of Fim1 association with F-actin prevented by Cdc8 alone: 50%
Substance: tropomyosin AlaSer-Cdc8, labeled (natural protein)
